Data on one molecule can be found in patent US20220251151A1.

What all share (assay): cell-based or functional assay
The target in assay [1] is T1, human Kv1.6 potassium channel (α-subunit) (human), P17658.
T1 chain: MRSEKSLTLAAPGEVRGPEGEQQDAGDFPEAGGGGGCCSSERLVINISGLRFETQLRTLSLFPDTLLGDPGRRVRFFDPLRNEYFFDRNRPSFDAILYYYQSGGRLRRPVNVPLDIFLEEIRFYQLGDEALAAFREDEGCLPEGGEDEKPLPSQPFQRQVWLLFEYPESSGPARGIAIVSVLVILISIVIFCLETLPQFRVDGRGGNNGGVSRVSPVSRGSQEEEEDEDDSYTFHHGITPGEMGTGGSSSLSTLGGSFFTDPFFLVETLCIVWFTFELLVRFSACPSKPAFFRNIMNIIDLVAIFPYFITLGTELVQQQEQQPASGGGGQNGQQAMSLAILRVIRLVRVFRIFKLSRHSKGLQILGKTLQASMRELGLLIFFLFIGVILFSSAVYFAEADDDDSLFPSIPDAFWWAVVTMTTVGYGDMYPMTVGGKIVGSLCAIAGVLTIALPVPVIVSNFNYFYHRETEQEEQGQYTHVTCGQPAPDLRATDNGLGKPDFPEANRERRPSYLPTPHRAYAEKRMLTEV

For assay [2], the target named is T2, human Kv1.1 potassium channel (α-subunit) (human), Q09470.
T2 chain: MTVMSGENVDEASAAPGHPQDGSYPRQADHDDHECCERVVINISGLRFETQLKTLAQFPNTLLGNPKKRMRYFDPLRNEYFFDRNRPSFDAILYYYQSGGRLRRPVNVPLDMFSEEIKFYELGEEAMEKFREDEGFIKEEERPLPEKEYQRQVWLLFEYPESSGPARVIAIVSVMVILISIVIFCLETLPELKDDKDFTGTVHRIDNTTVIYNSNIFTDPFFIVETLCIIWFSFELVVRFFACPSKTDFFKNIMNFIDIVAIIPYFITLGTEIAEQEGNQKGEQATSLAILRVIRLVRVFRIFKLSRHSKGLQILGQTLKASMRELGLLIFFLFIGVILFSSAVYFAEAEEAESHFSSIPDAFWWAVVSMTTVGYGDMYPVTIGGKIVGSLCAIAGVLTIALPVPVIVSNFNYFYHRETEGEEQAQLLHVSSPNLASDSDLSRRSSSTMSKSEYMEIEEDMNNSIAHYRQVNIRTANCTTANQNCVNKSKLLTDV

For assay [3], the target named is human Kv1.2 potassium channel (α-subunit) (human), P16389.
The target in assay [4] is human Kv1.3 potassium channel (potassium voltage-gated channel subfamily A member 3, α-subunit) (human), P22001.
Chain of human Kv1.3 potassium channel (potassium voltage-gated channel subfamily A member 3, α-subunit) (human), P22001 (P22001 whole entry): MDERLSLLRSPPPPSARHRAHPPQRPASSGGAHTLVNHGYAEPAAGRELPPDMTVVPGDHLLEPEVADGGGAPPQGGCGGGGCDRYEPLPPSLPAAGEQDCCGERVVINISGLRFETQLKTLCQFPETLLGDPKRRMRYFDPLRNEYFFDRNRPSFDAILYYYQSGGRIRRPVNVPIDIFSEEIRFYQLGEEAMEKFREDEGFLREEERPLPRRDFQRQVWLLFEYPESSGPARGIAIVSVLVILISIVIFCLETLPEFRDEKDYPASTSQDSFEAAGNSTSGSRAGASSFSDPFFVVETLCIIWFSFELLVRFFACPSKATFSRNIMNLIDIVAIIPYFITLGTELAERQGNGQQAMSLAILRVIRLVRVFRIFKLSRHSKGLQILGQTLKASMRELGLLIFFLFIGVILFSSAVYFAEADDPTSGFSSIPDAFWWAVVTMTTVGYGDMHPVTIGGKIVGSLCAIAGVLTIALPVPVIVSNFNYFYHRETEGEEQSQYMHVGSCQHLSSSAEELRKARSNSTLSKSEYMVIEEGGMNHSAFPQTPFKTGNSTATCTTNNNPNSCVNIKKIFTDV

Chain of human Kv1.2 potassium channel (α-subunit) (human), P16389 (P16389 whole entry): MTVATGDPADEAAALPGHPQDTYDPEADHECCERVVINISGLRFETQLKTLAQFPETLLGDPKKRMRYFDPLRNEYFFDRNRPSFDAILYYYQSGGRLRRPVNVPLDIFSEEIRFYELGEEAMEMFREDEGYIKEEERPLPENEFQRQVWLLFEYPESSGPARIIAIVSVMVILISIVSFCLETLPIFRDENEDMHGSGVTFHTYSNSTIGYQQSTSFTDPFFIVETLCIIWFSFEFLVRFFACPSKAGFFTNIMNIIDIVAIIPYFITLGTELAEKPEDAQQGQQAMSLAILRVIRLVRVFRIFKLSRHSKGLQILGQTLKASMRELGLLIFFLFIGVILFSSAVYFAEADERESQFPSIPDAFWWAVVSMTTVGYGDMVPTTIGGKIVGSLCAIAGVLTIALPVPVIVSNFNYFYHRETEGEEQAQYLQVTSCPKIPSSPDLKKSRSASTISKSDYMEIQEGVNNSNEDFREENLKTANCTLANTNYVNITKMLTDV

In assay [1], QMDMRCSASVECKQKCLKAIGSIFGKCMNKKCKCYPR (modifications not checked) [Compound 1 (PaT1)] had a Potency IC50 (patch clamp) greater than 3000 nM and a Selectivity Kv1.6/Kv1.3 greater than 7900. In assay [2], the Potency IC50 (patch clamp) was greater than 3000 nM and the Selectivity Kv1.1/Kv1.3 was greater than 7900. In addition, in assay [3], the Potency IC50 (patch clamp) worked out at 518 nM and the Selectivity Kv1.2/Kv1.3 worked out at 1360. In assay [4], the Potency IC50 (patch clamp) was determined as 0.38 nM and the anti-CD3 PBMC/IL-2 IC50 amounted to 0.09 nM.
